Changes are numbered by the printed parent chain.
B1: pHSP90.1 EMSA HSE (C1 +HSE) (dsDNA)
DNA 1: GAGTCTCGAAACGAAAAGAACTTTCTGGAATTCGTTTGCTCACAAAG
DNA 2: CTTTGTGAGCAAACGAATTCCAGAAAGTTCTTTTCGTTTCGAGACTC
B2: pHSP70.3 EMSA BRRE (C1 +BRRE) (dsDNA)
DNA 1: ATCCAACTCCAAAAGATCGTGCGGTTACATAGCGAGCCAT
DNA 2: ATGGCTCGCTATGTAACCGCACGATCTTTTGGAGTTGGAT
B3: pHSP90.1 EMSA BRRE (C1 +BRRE) (dsDNA)
DNA 1: TCCATCAGCTACAAAGTCGTGTGCGATTTTGAGTCGTTGT
DNA 2: ACAACGACTCAAAATCGCACACGACTTTGTAGCTGATGGA
B4: pHSP70.3 EMSA HSE (C1 +HSE) (dsDNA)
DNA 1: TTACATAGCGAGCCATCGAACCTTCTCGAAACTCGAGTACAAGACTC
DNA 2: GAGTCTTGTACTCGAGTTTCGAGAAGGTTCGATGGCTCGCTATGTAA
B5: pHSP70.3 EMSA HSEmut (C2 -HSE) (dsDNA)
DNA 1: B4 DNA 1 with G18T, C25A, G28T
DNA 2: B4 DNA 2 with C20A, G23T, C30A

Columns and labels:
[1] = molecular target: HSFA1a-MBP (UniProt P41151 1-495); experiment: EMSA
[2] = molecular target: T1, BES1 (BES1-GST / GST-BES1);HSFA1a-MBP (Arabidopsis thaliana?;Arabidopsis …, UniProt Q9LN63;P41151 1-335;1-495, |); experiment: EMSA
[3] = molecular target: BES1 (BES1-GST / GST-BES1) (UniProt Q9LN63 1-335); experiment: EMSA
[4] = molecular target: T1, BES1 (BES1-GST / GST-BES1);HSFA1a-MBP; experiment: competition

T1 sequence (Q9LN63 whole entry, chain 1 of 2): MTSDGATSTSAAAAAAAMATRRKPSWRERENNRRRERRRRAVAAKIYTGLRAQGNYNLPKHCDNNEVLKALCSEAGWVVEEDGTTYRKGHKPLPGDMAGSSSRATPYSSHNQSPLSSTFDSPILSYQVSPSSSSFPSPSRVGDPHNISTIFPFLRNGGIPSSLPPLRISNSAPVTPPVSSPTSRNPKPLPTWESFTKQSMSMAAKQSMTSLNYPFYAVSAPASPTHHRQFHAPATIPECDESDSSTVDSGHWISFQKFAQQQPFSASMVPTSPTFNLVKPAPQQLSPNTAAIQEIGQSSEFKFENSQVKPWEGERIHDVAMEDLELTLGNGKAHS
T1 sequence (P41151 whole entry, chain 2 of 2): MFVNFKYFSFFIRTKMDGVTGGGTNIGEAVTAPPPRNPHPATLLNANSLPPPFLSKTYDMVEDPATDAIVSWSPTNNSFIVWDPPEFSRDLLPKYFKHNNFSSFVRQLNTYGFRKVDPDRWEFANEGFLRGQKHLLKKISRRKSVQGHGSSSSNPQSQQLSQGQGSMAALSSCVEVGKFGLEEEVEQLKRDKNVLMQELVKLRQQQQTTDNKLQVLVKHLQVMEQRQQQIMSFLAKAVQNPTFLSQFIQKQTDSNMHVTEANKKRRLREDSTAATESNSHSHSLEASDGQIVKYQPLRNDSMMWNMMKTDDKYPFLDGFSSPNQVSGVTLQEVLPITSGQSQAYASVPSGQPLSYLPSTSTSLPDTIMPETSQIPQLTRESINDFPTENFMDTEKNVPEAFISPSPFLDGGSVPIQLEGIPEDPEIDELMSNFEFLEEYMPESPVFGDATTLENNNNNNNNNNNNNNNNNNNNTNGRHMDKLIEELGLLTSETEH
Sequence of BES1 (BES1-GST / GST-BES1) (Q9LN63 whole entry): as the sequence (Q9LN63 whole entry, chain 1 of 2) above
Sequence of HSFA1a-MBP (P41151 whole entry): as the sequence (P41151 whole entry, chain 2 of 2) above

| Binder | binding result [1] | binding result [2] | binding result [3] | binding result [4] |
| --- | --- | --- | --- | --- |
| B1 | binds | binds | – | – |
| B2 | – | – | binds | – |
| B3 | – | – | binds | – |
| B4 | binds | binds | – | – |
| B5 | – | – | – | no binding |

From article PMC8804921
